According to the supplement of paper PMC10266784:

B1: library; numbered along this chain (parent)
chain: MAAAAAAAAEQQSSNGPVKKSMREKAVERRSVNKEHNSNFKAGYIPIDEDRLHKTGLRGRKGNLAICVIILLFILAVINLIITLVIWAVIRIGPNGCDSMEFHESGLLRFKQVSDMGVIHPLYKSTVGGRRNENLVITGNNQPIVFQQGTTKLSVENNKTSITSDIGMQFFDPRTQNILFSTDYETHEFHLPSGVKSLNVQKASTERITSNATSDLNIKVDGRAIVRGNEGVFIMGKTIEFHMGGNMELKAENSIILNGSVMVSTTRLPSSSSGDQLGSGDWVRYKLCMCADGTLFKVQVTSQNMGCQISDNPCGNTH

Variants of: B1
Assay: SGCB cell-surface expression functional score (HA stain, bin4 vs bin1, normalised to synonymous) (log10 ratio); higher = more cell-surface SGCB (functional)
Outline: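 The functional score is a log ratio of variant frequency in the highest versus the lowest intensity bin, expressed as a median over codons and duplicate transductions. Codon-saturation libraries of HA-tagged, YFP-fused human beta-sarcoglycan were transduced by lentivirus at MOI <0.1 into HEK293 cells stably expressing alpha-, gamma- and delta-sarcoglycan, and the cells were stained on ice with Alexa Fluor 647 anti-HA, fixed and sorted into four 5% intensity bins before amplicon sequencing. Synonymous variants were scaled to mean 0, SD 0.5 within each section.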

Row | Variant | SGCB cell-surface expression functional score (log10)
1 | N199A | -0.02
2 | T209P | -0.71
3 | Q303P | 0.04
4 | T186P | -1.73
5 | N95D | -0.24
6 | I82V | 0.04
7 | Q308D | 0.17
8 | V261T | 0.23
9 | G149K | -0.63
10 | S21V | 0.14
11 | F233H | 0.36
12 | S310F | 0.06
13 | H36D | 0.26
14 | A4L | 0.45
15 | S31W | 0.21
16 | F146R | -1.45
17 | V18S | 0.21
18 | Y123K | -0.02
19 | M262Y | 0.79
20 | L135P | -1
21 | N95H | -1.18
22 | A8Y | 0.51
23 | S99L | 0.18
24 | L198M | -0.81

Row | Variant | SGCB cell-surface expression functional score (log10)
25 | D275V | 0.12
26 | T160Y | -1.13
27 | G106M | -0.94
28 | C314N | -0.61
29 | A42C | 0.21
30 | S273H | -0.82
31 | G222D | -0.04
32 | N33C | -0.01
33 | K286F | -0.07
34 | K111I | -0.61
35 | S105L | -0.66
36 | P143H | -0.41
37 | S14V | 0.21
38 | V261P | -0.15
39 | L249D | -1.06
40 | C290A | -0.08
41 | H103S | 0.06
42 | E248P | 0.43
43 | F171T | 0.72
44 | N15W | 0.29
45 | N199S | 0.26
46 | K34F | -0.14
47 | L52V | 0.17
48 | N312T | 0.06

Row | Variant | SGCB cell-surface expression functional score (log10)
49 | E240S | 0.98
50 | V298A | -0.24
51 | C97N | -1.16
52 | L80V | 0.26
53 | E24N | 0.02
54 | V118F | -0.06
55 | S154E | -0.33
56 | Q142H | -0.52
57 | A203S | -1.01
58 | I218F | 0.87
59 | L153M | 0.18
60 | D215Y | -0.46
61 | V85R | -0.06
62 | N229D | 0.08
63 | S38Y | -0.07
64 | S271M | -0.03
65 | I218S | -1.26
66 | G228V | -1.04
67 | D221L | 0.62
68 | A8W | 1.01
69 | P173C | -0.22
70 | S197M | -1.08
71 | I178M | -0.88
72 | Y123T | -0.12

Row | Variant | SGCB cell-surface expression functional score (log10)
73 | N211M | 0.07
74 | K237P | 0.32
75 | V89K | 0.02
76 | R91V | -1.43
77 | T301S | -0.16
78 | D172L | 0.77
79 | K152P | -0.94
80 | Q176P | -0.31
81 | R91S | -0.79
82 | S302V | 0.35
83 | E252Q | 0.64
84 | I208T | -1.57
85 | I234D | -0.5
86 | R284K | -0.73
87 | F241G | -0.98
88 | L80Q | -0.24
89 | N258H | 0.33
90 | G128N | 0.37
91 | G139D | -0.84
92 | F40D | 0.12
93 | P313I | -0.92
94 | D165N | -0.35
95 | Q276W | -1.29
96 | I90Y | -1.02

Row | Variant | SGCB cell-surface expression functional score (log10)
97 | N258Q | 0.63
98 | E230C | 1.05
99 | K19P | 0.42
100 | E101D | -0.49
101 | L216P | -1.25
102 | F146A | -1.22
103 | I81N | 0.04
104 | N37H | 0.41
105 | I137L | -0.12
106 | W282A | 0.11
107 | G62Q | 0.34
108 | K124S | 0.11
109 | S14Q | 0.46
110 | R51T | 0.01
111 | S105C | -0.21
112 | N246Y | 0.19
113 | N157L | 0.19
114 | A65R | -0.07
115 | N312H | -0.15
116 | R131H | -0.12
117 | A4V | -0.06
118 | H190M | -0.84
119 | N33V | 0.23
120 | S197A | -0.6

Row | Variant | SGCB cell-surface expression functional score (log10)
121 | A2V | 0.12
122 | S193P | -0.22
123 | N39S | 0.02
124 | H187M | -0.22
125 | S214T | -0.12
126 | N199T | 0.07
127 | V145K | -0.12
128 | P121I | -0.16
129 | A7C | 0.18
130 | L179V | -0.27
131 | D275K | -0.82
132 | S264V | 0.6
133 | N63H | 0.28
134 | A8D | 0.14
135 | P173W | -1.02
136 | K41Y | -0.07
137 | S197Y | -1.16
138 | D292G | -0.42
139 | N37C | 0.35
140 | Y285N | -0.74
141 | M243T | 0.83
142 | Y285F | -0.2
143 | I70M | 0.77
144 | N199K | 0.02

Row | Variant | SGCB cell-surface expression functional score (log10)
145 | M235F | 0.84
146 | T317M | -0.28
147 | S193V | 0.52
148 | P269M | -0.48
149 | D183R | -0.21
150 | V283A | -0.15
151 | R60Y | -0.12
152 | E24D | 0.17
153 | S260M | 0.98
154 | R130E | 0.14
155 | K159N | -0.03
156 | K297M | 0.17
157 | L107A | -0.67
158 | P192Y | -1.09
159 | Q308E | 0.05
160 | M305E | 0.04
161 | D311V | 0.04
162 | S161C | -0.11
163 | C307P | -0.28
164 | V232Y | -1.09
165 | L216M | 0.99
166 | Q303N | -0.9
167 | E188V | -0.11
